Results published in patent US20170334973A1 (INTEGRATED BIOTHERAPEUTICS, published 2017).

T1: SUDV VLP (Sudan virus (SUDV), UniProt Q66814 33-676)
T1 sequence: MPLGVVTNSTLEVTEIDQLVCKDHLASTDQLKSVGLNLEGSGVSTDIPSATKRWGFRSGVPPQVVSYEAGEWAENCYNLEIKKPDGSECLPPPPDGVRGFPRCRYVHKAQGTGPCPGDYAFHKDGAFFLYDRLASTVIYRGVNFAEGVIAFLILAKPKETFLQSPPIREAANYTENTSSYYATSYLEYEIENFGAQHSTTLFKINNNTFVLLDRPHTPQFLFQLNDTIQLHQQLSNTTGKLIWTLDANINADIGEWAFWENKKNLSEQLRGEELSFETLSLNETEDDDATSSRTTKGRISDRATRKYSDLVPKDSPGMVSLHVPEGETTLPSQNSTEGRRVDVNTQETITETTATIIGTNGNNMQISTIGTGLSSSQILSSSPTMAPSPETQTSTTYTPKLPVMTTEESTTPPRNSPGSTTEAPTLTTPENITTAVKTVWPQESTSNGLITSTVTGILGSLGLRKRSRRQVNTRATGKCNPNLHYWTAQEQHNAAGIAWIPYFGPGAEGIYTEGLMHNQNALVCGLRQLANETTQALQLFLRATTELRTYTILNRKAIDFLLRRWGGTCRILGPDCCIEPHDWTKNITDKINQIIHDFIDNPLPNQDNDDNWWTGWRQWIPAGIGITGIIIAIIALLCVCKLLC

T2: EBOV VLP (Ebola virus (EBOV), UniProt Q05320 33-676)
T2 sequence: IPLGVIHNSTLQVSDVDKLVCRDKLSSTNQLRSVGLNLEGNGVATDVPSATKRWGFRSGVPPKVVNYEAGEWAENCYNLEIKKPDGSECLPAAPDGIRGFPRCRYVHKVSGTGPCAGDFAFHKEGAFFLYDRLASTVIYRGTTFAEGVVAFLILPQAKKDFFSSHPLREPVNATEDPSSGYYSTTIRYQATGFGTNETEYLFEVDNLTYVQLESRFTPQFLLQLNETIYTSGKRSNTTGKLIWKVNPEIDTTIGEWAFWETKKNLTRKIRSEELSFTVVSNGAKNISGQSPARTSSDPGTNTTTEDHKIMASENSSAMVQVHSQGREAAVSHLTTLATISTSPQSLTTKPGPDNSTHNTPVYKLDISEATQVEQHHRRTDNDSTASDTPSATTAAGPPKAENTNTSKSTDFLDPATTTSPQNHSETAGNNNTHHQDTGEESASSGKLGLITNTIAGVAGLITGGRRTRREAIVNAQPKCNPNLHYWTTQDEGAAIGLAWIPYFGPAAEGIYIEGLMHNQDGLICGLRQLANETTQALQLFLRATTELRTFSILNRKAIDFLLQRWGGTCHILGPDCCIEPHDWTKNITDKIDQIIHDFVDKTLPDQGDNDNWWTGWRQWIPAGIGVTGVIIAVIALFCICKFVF


Columns and labels:
[1] = target: T1, SUDV VLP; experiment: ELISA
[2] = target: T2, EBOV VLP; experiment: ELISA

Binder	EC50 [1]	EC50 [2]
FVM29 (antibody, V domains shown) VH: EVQLVQSGAEVKRPGESLKISCQTSGNSFTNNWISWVRQMPGKGLEWMGAIDPSDSETRYSPSFQGQVTISADKSINTAYLQWSSLKASDTATYYCVKGSETWGQGVLVTVSS VL: QPVLTQPASLSASPGASASLTCTFSGGINVAGYNILWYQQKAGSPPRYLLRYKSDSTKDQGSGVPSRFSGSKDASANTGILRISGLQSEDEADYYCAIGHSSGWIFGGGTRLTVL	24.1 nM	–
FVM08 (antibody, V domains shown) VH: EVQLVQSGAEVKRPGESLTISCKTSGYSFTDSWVAWVRQMPGKGLEWMGSIYPGDSDTRYNPSFEGQVTISADKSISTTYLQWSSLRASDTATYYCVKGADDWGQGVLVTVSS VL: QPVLTQPASLSASPGASASLTCTFSGGINVAGYNILWYQQKAGSPPRYLLRYKSDSTKDQGSGVPSRFSGSKDASANTGILRISGLQSEDEADYYCAIGHSSGWIFGGGTRLTVL	0.135 nM	0.193 nM
FVM07 (antibody, V domains shown) VH: EVQLVQSGAEVKRPGESLTISCKTSGYSFTDSWIGWVRQMPGKGLEWMGSIYPGDSDTKYNPSFQGHVTISADKSISTTYLQWSSLKASDTATYYCVAREAYWGQGVLVTVSS VL: QPVLTQPASLSASPGASASLTCTFSGGINVAGYHIFWYQQKPGSPPRYLLRYKSDSDKGQGSGVPSRFSGSKDASANTGILRISGLQSEDEADYYCAIGHSSGVLFGGGTRLTVL	18.2 nM	1.71 nM
FVM39 (antibody, V domains shown) VH: EVQLVQSGAEVKRPGESLRISCKTSGYSFTDSWISWVRQMPGKGLEWLGSIYPGDSETKYNPSFQGHVTISADKSVTTTYLKWSSLKASDTATYYCVKGSETWGQGVLVTVSS VL: QPVLTQPASLSASPGASASLTCTFSGGINVAGYNILWYQQKAGSPPRYLLRYKSDSTKDQGSGVPSRFSGSKDASANTGILRISGLQSEDEADYYCAIGHSSGWIFGGGTRLTVL	0.047 nM	0.08 nM
FVM06 (antibody, V domains shown) VH: EVQLVQSGAEVKRPGESLTISCKTSGYSFTNYWISWVRQMPGEGLEWMGAIDPSDSDTRYSPSFQGQVTMSADKSITTAYLQWSSLKASDTATYYCVKGSETWGQGVLVTVSS VL: QPVLTQPASLSASPGASASLTCTFSGGINVAGYNILWYQQKAGSPPRYLLRYKSDSTKDQGSGVPSRFSGSKDASANTGILRISGLQSEDEADYYCAIGHSSGWIFGGGTRLTVL	0.213 nM	0.215 nM
FVM15 (antibody, V domains shown) VH: QVQLVQSGAEVKRPGESLRISCKTSGYTFTDYWIAWVRQMPGKGLEWMGSIYPGDSETKYNPSFQGHVTISADKSVTTTYLKWSRLKASDTATYYCVKGSETWGQGVLVTVSS VL: QPVLTQPASLSASPGASASLTCTFSGGINVAGYNILWYQQKAGSPPRYLLRYKSDSTKDQGSGVPSRFSGSKDASANTGILRISGLQSEDEADYYCAIGHSSGWIFGGGTRLTVL	0.129 nM	0.151 nM
FVM34 (antibody, V domains shown) VH: EVQLVESGAEVKRPGESLTISCKTSGYSFTDSWVSWVRQMPGKGLEWMGSIYPGDSETKYNPSFQGHVTISADKSVTTTYLKWSSLKASDTATYYCVKGSETWGQGVLVTVSS VL: QPVLTQPASLSASPGASASLTCTFSGGINVAGYYIHWYQQKPGSPPRYLLRYKSDSDKHQGSGVPSRFSGSKDASANTGILRISGLQSEDEADYYCAIGHSSGWVFGGGTRLTVL	0.227 nM	0.193 nM
FVM27 (antibody, V domains shown) VH: EVQLVQSGAEVKRPGESLKISCKTSGYSFASSWISWVRQMPGKGLEWMGAIDPSDSATRYSPSFQGQVTISADKSISTAYLQWSSLKASDTATYYCVKGSETWGQGVLVTVSS VL: QPVLTQPASLSASPGASASLTCTFSGGINVAGYNILWYQQKAGSPPRYLLRYKSDSTKDQGSGVPSRFSGSKDASANTGILRISGLQSEDEADYYCAIGHSSGWIFGGGTRLIVL	0.12 nM	0.233 nM
FVM16 (antibody, V domains shown) VH: EVQLVQSGAEVKRPGESLKISCRTSGYSFTSTWINWVRQMPGKGLEWLGSIYPGDSETKYNPSFQGHVTISADKSVTTTYLKWSSLKASDTATYYCVKGSETWGQGVLVTVSS VL: KPMLTQPASLSASPGASASLTCTFSGGINVAGYNILWYQQKAGSPPRYLLRYKSDSTKDQGSGVPSRFSGSKDASANTGILRISGLQSEDEADYYCAIGHSSGWVFGGGTRLTVL	1.43 nM	0.655 nM
FVM33 (antibody, V domains shown) VH: QVQLVQSGAEVKRPGESLKISCKTSRYSFTSSWIGWVRQMPGKGLEWLGSIYPGDSDTRYNPSFQGHVTISADKSVTTTYLKWSSLKASDTATYYCVKGSETWGQGVLVTVSS VL: QPVLTQPASLSASPGASASLTCTFSGGINVAGYNILWYQQKAGSPPRYLLRYKSDSTKDQGSGVPSRFSGSKDASANTGILRISGLQSEDEADYYCAIGHSSGWIFGGGTRLTVL	0.08 nM	0.173 nM
FVM26 (antibody, V domains shown) VH: QVQLVQSGAEVKRPGESLRISCKTSGYTFTDYWIAWVRQMPGKGLEWMGSIYPGDSETKYNPSFQGHVTISADKSVTTTYLKWSRLKASDTATYYCVKGSETWGQGVLVTVSS VL: QPVLTQPASLSASPGASASLTCTFSGGINVAGYNILWYQQKAGSPPRYLLRYKSDSTKDQGSGVPSRFSGSKDASANTGILRISGLQSEDEADYYCAIGHSSGWIFGGGTRLTVL	0.153 nM	0.26 nM
FVM22 (antibody, V domains shown) VH: EVQLVQSGAEVKRPGESLTISCKTSGYSFTDSWVAWVRQMPGKGLEWLGSIYPGDSETKYNPSFQGHVTISADKSISTAYLQWSSLKASDTATYYCAKGSETWGQGVLVTVSS VL: SSGLTQPASLSASPGASASLTCTFSGGINVAGYNILWYQQKAGSPPRYLLRYKSDSTKDQGSGVPSRFSGSKDASANTGILRISGLQSEDEADYYCAIGHSSGWIFGGGTRLTVL	0.173 nM	0.253 nM
FVM31 (antibody, V domains shown) VH: QVQLVQSGAEVKRPGESLTISCKTSGYSFTDSWVAWVRQMPGKGLEWLGSIYPGDSDARYNPSFQGHVTISADTSVTTTYLKWSSLKASDTATYYCVKGSETWGQGVLVTVSS VL: KPMLTQPASLSASPGASASLTCTFSGGINVAGYNILWYQQKAGSPPRYLLRYKSDSTKDQGSGVPSRFSGSKDASANTGILRISGLQSEDEADYYCAIGHSSGWIFGGGTRLTVL	0.193 nM	0.32 nM
FVM11 (antibody, V domains shown) VH: EVQLVQSGAEVKRPGESLTISCKTSGYSFTDSWVAWVRQMPGKGLEWLGSIYPGDSETKYNPSFQGHVTISADKSVTTTYLKWSSLKASDTATYYCVKGSETWGQGVLVTVSS VL: NFMLTQPASLSASPGASASLTCTFSGGINVAGYNILWYQQKAGSPPRYLLRYKSDSTKDQGSGVPSRFSGSKDASANTGILRISGLQSEDEADYYCAIGHSSGWIFGGGTRLTVL	0.189 nM	0.219 nM
FVM14 (antibody, V domains shown) VH: EVQLVQSGAEVKRPGESLKISCQTSGYSFTSTWITWVRQMPGKGLEWLGSIYPGDSETKYNPSFQGHVTISADKSISTTYLQWNSLKASDTATYYCVKGSETWGQGVLVTVSS VL: QAVVTQPASLSASPGASASLTCTFSGGINVAGYNILWYQQKAGSPPRYLLRYKSDSTKDQGSGVPSRFSGSKDASANTGILRISGLQSEDEADYYCAIGHSSGWIFGGGTRLTVL	0.157 nM	0.78 nM
FVM04 (antibody, V domains shown) VH: EVQLVQSGGGLVQPGGSMRLSCEASGLSLSDYFMHWVRQAQGKGLEWIGLIQTKAFTYKTEYPAAVKGRFTISRDDSKNTLYLQMSSLKPEDTALYYCIAVTPDFYYWGQGVLVTVSS VL: DVVMTQSPSFLSASVGDRVTITCRASQDITINLNWFQHKPGKAPKRLIYVASRLERGVPSRFSGSGSGTEFTLTISSLQPEDFATYYCQQYNNYPLTFGPGTKLDIKR	0.193 nM	0.306 nM
FVM05 (antibody, V domains shown) VH: QVQLQESGPGLVKPSETLSLTCAVSGFSISSGYGWSWIRQPPGKGLEWIGYIGGSSGSTSYNPSLKSRVTLSADTSKNQFSLKLSSVTAADTAVYYCARRYSSYRSWFDVWGPGVLVTVSS VL: SSGLTQPRSVSVSPGQTARITCGGDNIGSKSVHWYQQKPPQAPVLVIYADSERPSGIPERFSGSNSGNTATLTISGVEAGDEADYYCQVWDSSSDHWVFGGGTRLTVL	–	18 nM
